The values below come from article PMC2807882, “Conservation of DNA-binding specificity and oligomerisation properties within the p53 family”.

For one series, the target named is T1, Drp53 (Danio rerio, UniProt P79734 1-373).
T1 sequence: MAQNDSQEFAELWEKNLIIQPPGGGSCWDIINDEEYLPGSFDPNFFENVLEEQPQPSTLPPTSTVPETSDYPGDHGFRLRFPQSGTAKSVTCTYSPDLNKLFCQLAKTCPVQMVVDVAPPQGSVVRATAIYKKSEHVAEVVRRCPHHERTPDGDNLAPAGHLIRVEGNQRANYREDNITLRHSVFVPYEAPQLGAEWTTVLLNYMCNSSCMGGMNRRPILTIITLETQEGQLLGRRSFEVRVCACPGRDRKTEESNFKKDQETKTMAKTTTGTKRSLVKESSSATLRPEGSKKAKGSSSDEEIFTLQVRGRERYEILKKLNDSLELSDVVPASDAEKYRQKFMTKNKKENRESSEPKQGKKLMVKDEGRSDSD
The experiment in a line: fluorescence anisotropy competition titration; 25 mM sodium phosphate (purification buffer pH 7.2), 225 mM NaCl, 10% v/v glycerol, 5 mM DTT, 0.2 mg/mL BSA, 22 C. The note with it: protein: recombinant; tags: N-terminal 6xHis-lipoyl-TEV tag, cleaved; chain copies: 4. For orientation: In fluorescence polarisation assays a small probe gives low polarisation when free and higher when bound to something large.

Another series addresses T2, ΔNp63γ (Homo sapiens, UniProt Q9H3D4-6 1-393).
T2 sequence: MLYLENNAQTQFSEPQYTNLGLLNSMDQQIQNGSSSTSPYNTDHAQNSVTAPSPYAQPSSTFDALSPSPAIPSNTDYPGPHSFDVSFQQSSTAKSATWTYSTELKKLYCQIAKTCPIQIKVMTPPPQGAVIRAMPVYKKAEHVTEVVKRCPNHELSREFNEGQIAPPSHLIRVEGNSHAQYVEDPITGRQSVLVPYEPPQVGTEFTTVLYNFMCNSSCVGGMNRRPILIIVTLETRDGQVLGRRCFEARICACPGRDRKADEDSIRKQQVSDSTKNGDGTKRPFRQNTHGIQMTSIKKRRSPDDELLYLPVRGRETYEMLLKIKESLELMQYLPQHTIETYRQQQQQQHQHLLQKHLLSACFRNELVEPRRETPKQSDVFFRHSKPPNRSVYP
Described as above. To be noted: protein: recombinant; tags: N-terminal 6xHis-lipoyl-TEV tag, cleaved; chain copies: 4.

For another series, the target named is Mmp53 (Mus musculus, UniProt P02340 1-390). The description is as above. To be noted: protein: recombinant; tags: N-terminal 6xHis-lipoyl-TEV tag, cleaved; chain copies: 4.
Chain of Mmp53 (P02340 whole entry): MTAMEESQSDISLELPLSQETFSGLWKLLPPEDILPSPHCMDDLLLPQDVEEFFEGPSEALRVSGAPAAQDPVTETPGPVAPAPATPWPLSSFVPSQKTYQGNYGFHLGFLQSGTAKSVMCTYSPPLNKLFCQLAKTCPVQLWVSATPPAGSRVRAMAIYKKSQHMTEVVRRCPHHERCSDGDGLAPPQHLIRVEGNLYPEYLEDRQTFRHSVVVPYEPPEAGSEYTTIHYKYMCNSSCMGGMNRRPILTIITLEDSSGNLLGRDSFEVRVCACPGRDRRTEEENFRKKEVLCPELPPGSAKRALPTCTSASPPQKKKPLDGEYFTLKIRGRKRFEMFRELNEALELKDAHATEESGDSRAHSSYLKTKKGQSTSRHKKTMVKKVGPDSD
In another series the target is Hsp53 (Homo sapiens, UniProt P04637 1-393). The description is as above. The note with it: protein: recombinant; tags: N-terminal 6xHis-lipoyl-TEV tag, cleaved; chain copies: 4.
Chain of Hsp53 (P04637 whole entry): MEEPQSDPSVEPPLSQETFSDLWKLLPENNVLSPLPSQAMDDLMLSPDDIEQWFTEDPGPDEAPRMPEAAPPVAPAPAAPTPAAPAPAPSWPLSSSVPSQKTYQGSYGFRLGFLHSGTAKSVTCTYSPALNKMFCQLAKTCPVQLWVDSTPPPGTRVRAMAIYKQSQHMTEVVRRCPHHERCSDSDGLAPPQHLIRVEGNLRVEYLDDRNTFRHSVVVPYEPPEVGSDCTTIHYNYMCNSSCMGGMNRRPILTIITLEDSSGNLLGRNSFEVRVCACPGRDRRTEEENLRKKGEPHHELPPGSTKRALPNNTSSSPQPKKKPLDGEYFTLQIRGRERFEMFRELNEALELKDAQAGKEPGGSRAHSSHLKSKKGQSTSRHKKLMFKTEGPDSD
The target in another series is T3, Dmp53 (Drosophila melanogaster, UniProt Q9N6D8 1-385).
T3 sequence: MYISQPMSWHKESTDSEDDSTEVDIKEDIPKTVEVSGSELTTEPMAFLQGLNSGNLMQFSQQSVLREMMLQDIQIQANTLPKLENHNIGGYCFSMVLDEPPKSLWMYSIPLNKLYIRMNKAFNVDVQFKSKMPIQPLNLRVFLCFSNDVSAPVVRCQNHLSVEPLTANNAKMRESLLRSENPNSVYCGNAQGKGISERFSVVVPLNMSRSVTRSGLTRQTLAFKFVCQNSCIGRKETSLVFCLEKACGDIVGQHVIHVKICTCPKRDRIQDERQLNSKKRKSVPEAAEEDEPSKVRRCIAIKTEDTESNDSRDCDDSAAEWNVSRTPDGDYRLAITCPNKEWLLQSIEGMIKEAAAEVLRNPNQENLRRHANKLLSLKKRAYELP
The description is as above. To be noted: protein: recombinant; tags: N-terminal 6xHis-lipoyl-TEV tag, cleaved; chain copies: 4.

The target in a further series is T4, p73CT (Homo sapiens, UniProt O15350 104-383).
T4 sequence: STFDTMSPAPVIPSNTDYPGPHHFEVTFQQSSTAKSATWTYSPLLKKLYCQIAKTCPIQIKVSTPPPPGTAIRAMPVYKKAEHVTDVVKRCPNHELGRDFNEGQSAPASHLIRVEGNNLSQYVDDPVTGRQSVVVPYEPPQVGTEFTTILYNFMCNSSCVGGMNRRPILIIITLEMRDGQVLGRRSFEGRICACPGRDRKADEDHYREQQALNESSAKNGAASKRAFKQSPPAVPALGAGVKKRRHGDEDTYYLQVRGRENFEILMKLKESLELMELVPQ
Described as above. The note with it: protein: recombinant; tags: N-terminal 6xHis-lipoyl-TEV tag, cleaved; chain copies: 4.

The next series deals with Xlp53 (Xenopus laevis, UniProt Q7T1D0 1-362). The description is as above. To be noted: protein: recombinant; tags: N-terminal 6xHis-lipoyl-TEV tag, cleaved; chain copies: 4.
Chain of Xlp53 (Q7T1D0 entry or part of it): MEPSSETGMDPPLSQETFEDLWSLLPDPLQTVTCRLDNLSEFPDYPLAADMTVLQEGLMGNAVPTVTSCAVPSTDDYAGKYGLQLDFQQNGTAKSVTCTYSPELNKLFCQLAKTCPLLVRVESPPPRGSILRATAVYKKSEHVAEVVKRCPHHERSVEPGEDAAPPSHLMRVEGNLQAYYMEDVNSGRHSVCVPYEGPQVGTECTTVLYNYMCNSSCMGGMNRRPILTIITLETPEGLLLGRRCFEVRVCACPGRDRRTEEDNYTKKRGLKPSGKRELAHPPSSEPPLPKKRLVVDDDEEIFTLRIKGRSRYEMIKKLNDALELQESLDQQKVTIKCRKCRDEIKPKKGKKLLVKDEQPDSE
In another series the target is T5, ΔNp63β (Homo sapiens, UniProt Q9H3D4-4 1-461).
T5 sequence: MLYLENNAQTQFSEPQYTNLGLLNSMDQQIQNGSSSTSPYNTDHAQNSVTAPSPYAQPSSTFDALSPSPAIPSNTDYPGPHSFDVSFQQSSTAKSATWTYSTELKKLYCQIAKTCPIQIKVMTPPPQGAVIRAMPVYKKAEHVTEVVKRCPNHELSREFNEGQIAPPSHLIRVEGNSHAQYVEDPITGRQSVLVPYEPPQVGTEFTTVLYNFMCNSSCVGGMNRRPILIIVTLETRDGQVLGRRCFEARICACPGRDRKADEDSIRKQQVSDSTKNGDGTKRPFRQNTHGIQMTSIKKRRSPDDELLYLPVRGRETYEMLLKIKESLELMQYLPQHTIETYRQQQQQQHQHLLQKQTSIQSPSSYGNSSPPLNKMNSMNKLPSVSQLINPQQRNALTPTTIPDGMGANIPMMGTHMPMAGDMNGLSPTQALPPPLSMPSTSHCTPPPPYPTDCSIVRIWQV
The experiment in a line: fluorescence anisotropy direct titration; 25 mM sodium phosphate (purification buffer pH 7.2), 225 mM NaCl, 10% v/v glycerol, 5 mM DTT, 0.2 mg/mL BSA, 22 C. To be noted: protein: recombinant; tags: N-terminal 6xHis-lipoyl-TEV tag, cleaved; chain copies: 4; label: 5'-Alexa488.

B1: Ref competitor (dsDNA)
DNA 1: CGCGGACATGTCCGGACATGTCCCGC
DNA 2: GCGGGACATGTCCGGACATGTCCGCG
By Kd is commonly meant the concentration at which binding is half-saturated. Turning to B1, the Kd amounted to 0.038 µM in the series with Drp53; 0.0331 µM with ΔNp63γ; 0.132 µM in the series with Mmp53; 0.0759 µM with Hsp53; 0.0275 µM in the series with Dmp53; 0.148 µM with p73CT. Also, the Kd in the series with Xlp53 came out at 0.0832 µM.

B2: Ref_Alexa488 (dsDNA)
DNA 1: GGACATGTCCGGACATGTCC
DNA 2: GGACATGTCCGGACATGTCC
B2: the Kd in the series with ΔNp63β stood at 0.0741 µM.
